The values below come from patent publication US20100196403A1, “ANTIBODY CONJUGATES FOR CIRCUMVENTING MULTI-DRUG RESISTANCE” (priority 2007, published 2010).

One assay concerns HU-2 cells. Put plainly: Cell viability of HU-2 cells with toxic drugs (Trypan blue exclusion). Type of assay: cell-based, mouse. The settings on record: 2 μg/ml Adriamycin or 1 μg/ml colchicine, FIG. 6A. The procedure:
T-25 cells (Hochman et al, 1984), derived from S49 mouse lymphoma, were transduced with a retrovirus containing the human MDR1 cDNA, as previously described (Galski et al. 1995). The resultant cells (HU-2) are cross-resistant to colchicine, doxorubicin, vinblastine and actinomycin D, and their resistance to colchicine is reversed by verapamil. T-cell lymphoma derived cell lines were grown in Dulbecco's modified eagle medium (DMEM) supplemented with 10% heat-inactivated horse serum, at 37° C. in a humidified atmosphere containing 5% CO2.
To measure the sensitivity of HU-2 cells to toxic drugs, 1×10^5 cells per well were incubated with 10 μg of the conjugate for 4 hrs. 2 μg/ml of Adriamycin or 1 μg/ml of colchicine was then added and the cells incubated for a further 96 hrs. Stocks were prepared in DMSO. The maximal final concentration of DMSO in the assays was 0.5% (v/v). After 96 h, the cells were checked by light microscopy and viable cells were counted by Trypan blue exclusion.

The target in assay [1] is human MDR1 (P-gp) expressed in HU-2 mouse lymphoma cells (human) (UniProt P08183). The experiment in a line: cell-based or functional assay.
The target of another assay is T1, ABCB1 transporter (Cricetulus griseus, UniProt P21448).
T1 construct: In drug resistant cells, calcein-AM is extruded by the ABCB1 transporter; endogenous in cells; host or cells: CHO cell clone CH(R)B30 (colchicine-resistant)
Type of assay: cell-based, Chinese hamster.

human MDR1 (P-gp) expressed in HU-2 mouse lymphoma cells (human), sequence (P08183 whole entry): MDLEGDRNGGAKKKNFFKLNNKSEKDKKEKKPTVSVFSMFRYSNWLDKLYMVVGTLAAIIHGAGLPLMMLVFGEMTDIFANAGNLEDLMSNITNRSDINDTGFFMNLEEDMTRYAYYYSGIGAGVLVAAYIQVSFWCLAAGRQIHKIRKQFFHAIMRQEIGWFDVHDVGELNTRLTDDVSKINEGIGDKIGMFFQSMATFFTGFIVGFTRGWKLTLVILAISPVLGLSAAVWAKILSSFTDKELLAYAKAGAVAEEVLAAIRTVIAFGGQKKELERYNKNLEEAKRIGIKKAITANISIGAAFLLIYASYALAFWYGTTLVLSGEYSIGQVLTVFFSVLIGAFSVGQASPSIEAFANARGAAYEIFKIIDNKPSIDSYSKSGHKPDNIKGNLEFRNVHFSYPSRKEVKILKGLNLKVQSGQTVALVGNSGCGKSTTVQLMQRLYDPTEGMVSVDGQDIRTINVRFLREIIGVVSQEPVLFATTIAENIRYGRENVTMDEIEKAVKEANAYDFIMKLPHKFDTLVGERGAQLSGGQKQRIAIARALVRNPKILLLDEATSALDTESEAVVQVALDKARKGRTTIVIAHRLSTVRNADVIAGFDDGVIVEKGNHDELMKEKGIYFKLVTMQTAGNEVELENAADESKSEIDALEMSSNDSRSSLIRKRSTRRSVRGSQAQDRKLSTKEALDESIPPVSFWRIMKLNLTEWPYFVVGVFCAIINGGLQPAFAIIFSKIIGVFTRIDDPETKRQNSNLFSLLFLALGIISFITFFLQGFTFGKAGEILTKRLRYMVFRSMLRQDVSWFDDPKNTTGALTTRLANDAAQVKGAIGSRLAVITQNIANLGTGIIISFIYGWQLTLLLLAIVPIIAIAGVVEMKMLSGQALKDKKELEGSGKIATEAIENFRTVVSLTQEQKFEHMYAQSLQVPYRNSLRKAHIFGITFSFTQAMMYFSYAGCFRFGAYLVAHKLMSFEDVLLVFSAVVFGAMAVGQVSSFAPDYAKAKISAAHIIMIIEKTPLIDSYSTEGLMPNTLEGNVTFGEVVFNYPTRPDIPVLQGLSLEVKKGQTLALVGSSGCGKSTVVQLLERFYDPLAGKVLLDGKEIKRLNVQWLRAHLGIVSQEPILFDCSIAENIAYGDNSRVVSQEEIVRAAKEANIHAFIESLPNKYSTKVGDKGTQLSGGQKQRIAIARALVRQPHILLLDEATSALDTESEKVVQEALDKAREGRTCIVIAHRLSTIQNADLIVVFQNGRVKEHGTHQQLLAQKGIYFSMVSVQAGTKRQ
T1 sequence (P21448 whole entry): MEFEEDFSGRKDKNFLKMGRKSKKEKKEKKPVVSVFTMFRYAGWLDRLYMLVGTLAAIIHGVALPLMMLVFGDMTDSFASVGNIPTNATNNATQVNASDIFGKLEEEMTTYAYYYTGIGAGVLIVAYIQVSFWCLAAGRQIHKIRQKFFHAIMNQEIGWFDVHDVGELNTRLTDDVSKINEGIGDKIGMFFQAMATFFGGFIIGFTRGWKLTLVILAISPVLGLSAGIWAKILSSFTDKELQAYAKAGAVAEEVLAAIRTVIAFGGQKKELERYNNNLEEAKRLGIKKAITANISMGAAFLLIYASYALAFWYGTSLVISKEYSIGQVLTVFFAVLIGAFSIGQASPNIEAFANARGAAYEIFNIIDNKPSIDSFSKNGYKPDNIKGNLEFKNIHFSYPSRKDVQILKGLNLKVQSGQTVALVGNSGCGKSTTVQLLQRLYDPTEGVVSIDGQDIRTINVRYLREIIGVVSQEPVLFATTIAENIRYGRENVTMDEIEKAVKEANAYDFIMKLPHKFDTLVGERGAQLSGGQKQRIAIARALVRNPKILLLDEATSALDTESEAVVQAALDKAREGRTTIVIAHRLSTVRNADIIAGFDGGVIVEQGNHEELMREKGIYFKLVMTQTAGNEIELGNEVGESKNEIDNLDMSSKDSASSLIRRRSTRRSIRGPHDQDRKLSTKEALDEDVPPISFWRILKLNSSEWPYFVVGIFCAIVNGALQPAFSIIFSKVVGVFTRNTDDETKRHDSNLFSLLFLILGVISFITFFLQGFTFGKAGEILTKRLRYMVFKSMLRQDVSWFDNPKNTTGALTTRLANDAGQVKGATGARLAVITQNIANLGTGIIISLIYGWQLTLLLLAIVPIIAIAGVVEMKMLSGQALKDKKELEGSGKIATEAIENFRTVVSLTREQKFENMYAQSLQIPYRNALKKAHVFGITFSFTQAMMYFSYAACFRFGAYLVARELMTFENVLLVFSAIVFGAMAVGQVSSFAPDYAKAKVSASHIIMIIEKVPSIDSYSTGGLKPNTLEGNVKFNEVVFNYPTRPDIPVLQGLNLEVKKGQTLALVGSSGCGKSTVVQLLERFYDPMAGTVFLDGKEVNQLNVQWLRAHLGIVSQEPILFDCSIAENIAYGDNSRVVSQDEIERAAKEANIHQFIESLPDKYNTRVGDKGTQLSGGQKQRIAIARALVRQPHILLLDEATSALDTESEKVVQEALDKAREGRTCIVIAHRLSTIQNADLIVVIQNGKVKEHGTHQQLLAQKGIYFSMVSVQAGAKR
Procedure for ABCB1 transporter: Cells were grown in alpha-MEM medium supplemented with 10% Fetal Calf Serum (FCS), penicillin 50 U/ml, streptomycin 50 μg/ml, and ceftazidim 50 μg/ml. For propagation of the clone, colchicine was added to this medium to a final concentration of 20 μg/ml.
Cells were diluted in alpha MEM to about 1.5×10^6 cells/ml. Volumes of 1 ml were distributed to 2 ml Eppendorf tubes. […] The capped tubes were positioned with their longitudinal axes inclined to 45° on a roller platform and were rotated in the incubator. The cells were incubated with conjugates, proteins, or peptides, respectively, at various concentrations and for various times. […] Calcein-AM was added to a final concentration of 1 μM or 2 μM at least 30 min before the end of incubation. Calcein-AM, a substrate of ABCB1, is a hydrophobic non-fluorescent substance that easily enters cells. Once in the cytoplasm, calcein-AM is hydrolysed, and the ensuing fluorescent calcein is retained within the cells. In drug resistant cells, calcein-AM is extruded by the ABCB1 transporter. […] All vials were stopped by addition of ice-cold medium and then put on ice for subsequent flow cytometry (beginning about 1 h after the end of incubation). […] 100,000 cells, in a few experiments 50,000 cells per vial were counted. […] The median channel xM of the y distribution and yM, the number of cells in xM, were determined.

As to `COc1cccc2c1C(=O)c1c(O)c3c(c(O)c1C2=O)C[C@@](O)(C(=O)CO)C[C@@H]3O[C@H]1C[C@H](N)[C@H](O)[C@H](C)O1` [adriamycin, doxorubicin], in the assay with HU-2 cells, the “viability of HU-2 cells with drug, no conjugate” value was “remain viable”.
For the compound `COc1cc2c(c(OC)c1OC)-c1ccc(OC)c(=O)cc1[C@@H](NC(C)=O)CC2` [colchicine], the “viability of HU-2 cells with drug, no conjugate” value in the assay on HU-2 cells was “remain viable”.
Consider “C219-S-S-(37-72)Tat conjugate (Mab C219 linked through PDPH and a disulfide bond to Cys 37 of HIV-1 (37-72)Tat) (antibody)”, for which, in assay [1], the cell death of HU-2 cells with Adriamycin 2 µg/ml in the presence of 10 µg conjugate, Trypan blue count after 96 h, normalized to drug without conjugate was 68% and the cell death of HU-2 cells with colchicine 1 µg/ml in the presence of 10 µg conjugate, Trypan blue count after 96 h, normalized to drug without conjugate came out at 91%.
Regarding “CFITKALGISYGRKKRRQRRRPPQGSQTHQVSLSKQ [(37-72)Tat]”, in the assay with ABCB1 transporter (1 μM, 210 min, FIG. 4F), the “shift in the flow cytometry histogram” value was “small”. Also, the “effect on MDR activity (summary of results)” value with ABCB1 transporter (colchicine-resistant CH(R)B30 cells) is given as “only a marginal effect”.
